From patent US20230329283A1 (priority 2021, published 2023)
Read-outs that look alike come from different tables or passages of the source.

Tested on: rabbit red blood cells
Details: 37° C., 1 h, FIG. 6

In the case of “TrSub (EFGAGKAQCAAAWLQCASGGTLGCGGGAVACQNYRQFQCRAA; the amino acid sequence of the recombinant antimicrobial peptide TrSub)”, the “hemolytic activity (hemolysis rate)” value (2MIC concentration) is reported as “below 10%” and the “hemolytic activity (hemolysis rate)” value (MIC concentration) is reported as “below 10%”.
